Assay results published in PMC6061780 (Nucleic Acids Research, 2018).

T1: Sc eIF4E (residues T25–L213), His6 tag removed (Saccharomyces cerevisiae, UniProt P07260 25-213)
T1 sequence (looked up): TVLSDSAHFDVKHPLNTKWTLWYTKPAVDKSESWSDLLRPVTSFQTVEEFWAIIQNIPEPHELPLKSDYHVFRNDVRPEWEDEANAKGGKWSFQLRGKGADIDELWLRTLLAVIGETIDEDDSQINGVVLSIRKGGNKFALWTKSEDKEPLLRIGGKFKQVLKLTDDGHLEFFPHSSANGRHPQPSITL

T2: Sc eIF4E Δ34 (residues V35–L213), His6 tag removed (Saccharomyces cerevisiae, UniProt P07260 35-213)
T2 sequence (looked up): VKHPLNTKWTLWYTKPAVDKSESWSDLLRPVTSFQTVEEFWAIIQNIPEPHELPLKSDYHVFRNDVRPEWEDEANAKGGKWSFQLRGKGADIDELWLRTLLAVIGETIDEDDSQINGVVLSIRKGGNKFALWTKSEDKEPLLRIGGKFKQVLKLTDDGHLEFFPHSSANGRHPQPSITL

B1: Sc eIF4E II-AA lateral surface mutant, His6 tag removed (ITC) (domain or fragment)
chain: GPHMTVLSDSAHFDVKHPLNTKWTLWYTKPAVDKSESWSDLLRPVTSFQTVEEFWAAIQNAPEPHELPLKSDYHVFRNDVRPEWEDEANAKGGKWSFQLRGKGADIDELWLRTLLAVIGETIDEDDSQINGVVLSIRKGGNKFALWTKSEDKEPLLRIGGKFKQVLKLTDDGHLEFFPHSSANGRHPQPSITL

How the values were obtained:
Assay in all cases: ITC
[1] = target: T1, Sc eIF4E (residues T25–L213), His6 tag …
[2] = target: Sc eIF4G (residues V448–N500; C+L+NC)-GB1 (Saccharomyces cerevisiae, UniProt P39935 448-500)
[3] = target: T2, Sc eIF4E Δ34 (residues V35–L213), His6 …

Row | Binder | Kd [1] | Kd [2] | Kd [3]
1 | GPHMDLQYKTYAYSMNELYHLKPSLA (domain or fragment) [Sc Eap1p canonical motif (C)-GB1] | 3400 ± 300 nM | – | –
2 | B1 | – | 1020 ± 90 nM | –
3 | KKTAMLNFSSLTDPITNYKPMDLQYKTYAYSMNELYHLKPSLA (domain or fragment, Saccharomyces cerevisiae, UniProt P36041 80-122, looked up) [Sc Eap1p (residues K80–A122; N+C peptide)-GB1] | 8 ± 4 nM | – | –
4 | SASYEEDPLISELVRSLPKRKFWRLRMG (domain or fragment, Saccharomyces cerevisiae, UniProt P36041 123-150, looked up) [Sc Eap1p L+NC fragment (residues S123–G150)-GB1] | 1000 ± 100 nM | – | –
5 | TDPITNYKPMDLQYKTYAYSMNELYHLKPSLA (domain or fragment, Saccharomyces cerevisiae, UniProt P36041 91-122, looked up) [Sc Eap1p (T91–A122; N_(short)+C)-GB1] | 12.9 ± 0.9 nM | – | 8.8 ± 0.5 nM
